Assay: label from the status in PepcDB records
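Note: failed if final PepcDB status was selected cloned or expressed and not failed if soluble or beyond.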

Sequence | protein production
MKISELGYDRAFLQLFDGNDFQLYDHQRMAIEQIRKGRNVVVSVPTAAGKTLIAYSAIYETFQRNLKSIYIVPLRSLAMEKFSELSRLRDLGLKVKMSIGDYDDSPDFIKRYDAVILTSEKADSLLHHDPYILNDVGLLVLDEIHTIGDESRGPTLETVASIARYVNPDVRILALSATVSNAMELASWLDASLIKSDFRPVPLKTGILYRDQLYLDGKRRSGVSINQIIRETVEDNGQVLMFVSSRKKAEDTARDLAQIFGSDANIKISSDETNVYDDMLNEILPRGVAFHHAGLSNDQRAFIEREFRARRIKVIVATPTLAAGVNLPARLVIVRDITRWGSDGISYLTNMEIKQMIGRAGRPGYDQYGIGLIYVSSQSSYEAAKDYLSTDPEPVVSYLGNEAKVRFNTLAAISMGLARSPSDIMKFYETTLFFSQNGKDLLEEKISASLKFLEKNGFIKQSPDLRTTQLGKVTSDLYIDPESALRLVDFFDGPADVDHAIYYISLCREIVPFNIKDDYSAMEFLDDIGLIDGDIDAAKTAIVLRDWISEASYKYLYDKYGIAPGDMQARISMADWLSYSLAKLSSIYKPEVRRMLEILNLRIKEGIREDILQLVLIPGVGRVRARRLYDAGLRSIEDVASASPDRIKAIYGFSDTLANAIIRRARTIASKEVR | failed
WPIWTRRSDGTLSFANAAYARATDASDAADAIGRNLELLDSGDRAALARALGDGYEYSGRLPIVVGGERRYYDVRALKVSGGSAGIAVDATETAALGAALERMADAHRRTLDQLSSGVAVFDAQRRLSFYNDSYRKLWDL | failed
MMTLIRITSADDSRLNRLIPLYEESFPESERRKIGQLKRMIENHAPMYFNAIECDGELSGMFVYWDMGDFYYLEHLAVFPEMRNKKIGQQVLDYVAEHLKGVRLLEVEPTEDEMTTRRVNYYRRNGYEVLDKTYVQPSYHALEDACPLWIMGSEDSPRLAEQVERIKEEVYRQQVG | not failed
MKNETLHTQEDIIKMLDSLLRPAEPFWNEFYANREKDVPFFENVPDENLVSYIQKKRVSKGKVLELGCGPGRNAIYLANEGFDVTAVDVSIEGINWAKERALAKGVEIEFICDSIFNLEVQNEFDFVYDSGCLHHIPPHRRVNYVDLIKNALKSGGYFGLTCFAAGDLDERNGSEITDWDVYRGWSLQGGLAYSEEKLREIFKGFEVIEIRKMEQIEQPNTMFGESFLWTALFKKNLEHHHHHH | not failed
MKRLALALKQRKVASWKLEEVKELTELIKNSNTILIGNLEGFPADKLHEIRKKLRGKATIKVTKNTLFKIAAKNAGIDIEKLEQYLTGPNVFIFTKDNPFITNMFFENYKLRRYAMPGDKAEEEVVIPAGDTGMPAGPILSVFGKLKVQTKVQDGKVHVVKDTVVAKPGDVIPAEALPILQKLGIMPVYVKLKIKVAYHEGLVIPAESLKLDLEGYRSNITEAYRNAFTLAVEIAYPTPDVLKFTISKVFKNAIALASEIGYITPESAQAVISKAVAKAYALATAIGGKVDLGVQLPTVQQSQSQQPAAEEKKEEKKEEEKKGPSEEEIASGLASLFG | failed
MALARANSPQEALLWALNDLEENSFKTLKFHLRDVTQFHLARGELESLSQVDLASKLISMYGAQEAVRVVSRSLLAMNLMELVDYLNQVCLNDYREIYREHV | not failed
DYFTTTNSIPPVITTNHRRKHSIEKFYRDQLGSIIWNEEDVGHQQVPEINKHGYRAAVKIIVIIDNMERKAAIQSRQSYDEALRYGAVLIFLPGIYEIDT | failed
MGNILKDKSMAFAIQIVNLHKYPNKRKAYSLSDQILISGTAIGVLQKETECAESNADFIHNIASPQKNVTKPFSGLNCYLKQNIYPKQNIQACLQTQMNLEHHHHHH | failed
MSELITYHAEDGIATLTLNNGKVNAISPDVITAFNAALDRATEERAVVIITGQPGILSGGYDLKVMTRGPQEAISLVTAGSTLARRLLSHPFPVVVACPGNAVAKGAFLLLSADYRIGVEGPYKVCLNEVQIGMTMHHAGIELARDRLRRSAFHRSVINAEVFDPQGAVDAGFLDKVVPAEQLQEAAMTAARELKKLN | failed
MLAKVLKKRGAVLRGDFVLSSGRRSSVYIDMRRLLGDESSYSVALDLLLEVGGQDLARSSAVIGVATGGLPWAAMLALRLSKPLGYVRPERKGHGTLSQVEGDPPKGRVVVVDDVATTGTSIAKSIEVLRSNGYTVGTALVLVDRGEGAGELLARMGVRLVSVATLKTILEKLGWGGE | not failed
MDAEKKSAHFRQISSYKPQLLVLSSIQENPSSKISEKANIKADNDAEIGVFGAEKYFSMKLDHVDSTADITKQHEKENTHDHPNANPNPNPNPHPHPHPQLTKTTSSRSKTSRHGTPSVRSESSCNSQTFLMRINNHNENKQRKMNDTSISFGGFRCYGPCSGVKTVHTDPKNSCKSRNSDRDFVAYDARKHNDKPRLHFEAKKADFHAQEKISLPIQRSDIAMNLERKLSLLTWDAIPNQLSTKNNNHNNNGNNSSMSSNTQEEETASVASSDLFEIENITSSVYEPSEASIGWSVVTGSMADQSVISDFDMMKRVTRNGPVVKTKPVIGEKVRSAGFLSGCKSHKAVSVVDSSRKVKETAKVDHHEMSHQKKFKTEIRIQDLSFL | failed
MLKHCGEFHIALKHLQLALLYTYPSTFSELQVKFQIAHLYEVQNKHKAAKDGYEFLLNEKNISLELKADVYRQLGWMYHCVECLGEKKEREANALNFLQKSIEADPKSGQSLYLLGRCYAGINKVHDAFLAYRNSVEKSEGNADTWCSIGVLYQQQNQPTDALQAYICAVQLDKDHKAAWTNLGILYESCGQLRDAYACYLNATKQISFQKSSLIRKKQAIRMKKDTIGLSKGLSQRITFLEGQLSQAPLPSITSKRRQLCSIEEAWNLPISLEMNSRQQQTAQMLPRQVTKQSPVQGPPPPYPHSQLSQSPIPSKRIKEDGTSQQEVTQNNSQTSAQNLINISESLNQRNFNAMPESNKSSEQSVLDTFDDISNDIYKQNESIKLERLSQDALSNNEDSRHDFIGGDNADISTTFKIQMDSKQLMVAVKLLPIDEPPVHCTILQVNAPPPSPPDCPPQKLTRDQLLPPTPSVHLENKKHAFSPQLQEFCLKHPIAVVRGLAGVLKLDLGLFSTKTLVEANPDHSVEVRTQVHQSPDENWDTSQGKRVWACISHRSHTTIAKYAQYQASSFQDSLKLILPQDESDKGFPGSQAMSDSDSKDSVSNSNIVLKRKKHKINSKMLRFGTNVDLSDEKKWKPQLTELQKLPAFARVISAANMLSHVGHVILGMNTVQLYMKVPGSRTPGHQENNNFCSININIGPGDCEWFAVPDAYWGGVHNLCEKNNISYLHGSWWPVLEDLYKENIPVYRFIQKPGDLVWVNAGCVHWVQSIGWCNNIAWNVGPLTARQYSLAIERYEWNKVQAFKSIVPMVHLSWNLARNIKVSDTKLFELIKMCLLQTLKNVLHIQEYVKSKGVEIRFNGRGKNEASHYCGQCEVEVFNVLFIKEQEKRHVVHCLSCALKLSPSLQGIVCLEEYRLSELQRVYDSFTLHRTQGLAYTQ | failed
MIMSKESIIFVGLFTVILSAVILMLSYTSSGQELNQYVKIEVQQGDTLWSIADQVADTKKINKNDFIEWVADKNQLQTSDIQPGDELVIPLKKKHQDAYELATVR | failed
MHPDTTLILIAAASIVLLVLLVTRLKLHPFLALMVAAAFLGLASGLAPTDAVKTFQKGFGNILGSVGLVVGLGSMLGGLLLNTGGADRIANAFVGRGSTVWLPTSICAAALLIGMPHLFDVSFVMLVPLVFAIAKRTGSHLMRVGLPMAAGLYVSHGFLLPHPSPTLALAIYHGDAGRAILFGFLLAIPTAILSGPLLTSFAMRWFKDPIDITHSPIMTAAGRSDVTTLDNAPRLPVVLLTVLLPPGLMLLRTLLADHVPEGAARAFLDGIGNPIVSLAIAVLFAIWALGVRSGRSLGEIQKLLGKSLAPAAGVILIVGAGGGLKEMLLGTHIGDMIASGAAQWAISPLVLAWVIAALMRIAVGSATVATVTAAGLMAPVQALHPEISPELMTISVATGGLMLSHLNDSGFWLFKEYFQLTVAQTLKSWTLMVSVQSALGLAGVLLIDAVIR | failed
MPVQNRIHKGINMNSYAHLNVEKRGHTAVVTIDNPPANTWNRASLTALKQLVADLNADRDIYALVITGQGEKFFSAGADLNLFADGDKKVATEMTLLFGEAFEALSAFRGVSIAAINGYAMGGGLECALACDIRIAEEQAQMALPEAGVGLLPCAGGTQNLPWLVGEGWAKRMILCGERVNAATAERIGLVEQVVAKGEALAAALKLAEGVARQSPSSVGVCKQLVQAARTQPPAWNLIKEREAFIKLFDTQDQAEGTRAFLEKRAPNWKNA | failed
MEEKRLSAKKGLPPGTLVYTGKYREDFEIEVMNYSIEEFREFKTTDVESVLPFRDSSTPTWINITGIHRTDVVQRVGEFFGIHPLVLEDILNVHQRPKVEFFENYVFIVLKMFTYDKNLHELESEQVSLILTKNCVLMFQEKIGDVFDPVRERIRYNRGIIRKKRADYLLYSLIDALVDDYFVLLEKIDDEIDVLEEEVLERPEKETVQRTHQLKRNLVELRKTIWPLREVLSSLYRDVPPLIEKETVPYFRDVYDHTIQIADTVETFRDIVSGLLDVYLSSVSNKTNEVMKVLTIIATIFMPLTFIAGIYGMNFEYMPELRWKWGYPVVLAVMGVIAVIMVVYFKKKKWL | not failed
MATAVKLSGISKTFGSLKANDNVSLSIEAGSIHALVGENGAGKSTLSNIIYGLLHPDSGTIEIDGKAVKFSSVRQAIEAGIGMVHQHFMLVPTLSVTENIILGKEESRLALPTRRIGKEIRQLSQQHGLEVDPDALVSTLSVGEQQRVEILKLLYRRAKLLILDEPTAVLSPPETARLFATLRSLAAEGRTVLLITHKLDEVLTVSDSVSVMRKGSLVGTVPTTSTSKEDLARMMVGRDVLLRTANAPQTPGKTVLSIDKLTYRSPLGIDKLTGLTLHVRAGEIYGIAGVEGNGQSELLSLLWGTFDRSGKTGGSITIDAQETLGKNPSEIAALGVSMIPEDRHKSAIIAEYGIEENLILGRHREKAFHRGIGFDRDAVHKNATAMIEQYDIRCAAGTNPPIASLSGGNQQKIVVAREMERPQLKLLVLAQPTRGVDIGAIEQIHKRIIDARKSGLAILLISSELEEIVALSTRIGCLYKGAIRHEFSETEVWRGRDHESGFEKEIGMHITLEHHHHHH | not failed
MSLILCIDVGNSHIYGGVFDGDEIKLRFRHTSKVSTSDELGIFLKSVLRENNCSPETIRKIAICSVVPQVDYSLRSACVKYFSIDPFLLQAGVKTGLNIKYRNPVEVGADRIANAIAATHSFPNQNIIVIDFGTATTFCAISHKKAYLGGAILPGLRLSADALSKNTAKLPSVEIIKTESVVGRSTIESIQSGVYYGVLGACKELIQRIHHEAFNGDQILILATGGFASLFDKQGLYDHLVPDLVLQGIRLAAMMNTAEGHHHHHH | not failed
MTALAVTLKNWFFTRNSMILNANILLFIILFNTLPFEPQVVTGISILVFVAILWLTEAIHVSITALLIPMLAVFLGVFNTQAALNNFSNSIIFLFLGGFALAAALHKQKLDQALADKVLLIARGRMSVAVFMLFGVSAGLSMWISNTATAAMMLPLVLGVMTKLDAKKNHNTFLFVLLGIAYSASIGGIATLVGSPPNAIAAAEVGLNFTEWMKLGLPISLILMPIAILVLYTMTKPDLSHKFELDHKPVEWTNGKMVTLAIFLLTVTLWIFSKPINTMLGGFAKFDTLVAIGAILLLGASRAVEWKDIEKTTDWGVLILFGGGICLSNVLKATGTSVFLAHSLTGFLEQAGVLLTILSVVAFVVFLTEFASNTASAALLVPVFATIAEALGLSPVILSALIAVAASCAFMLPVATPPNAIVFGTGHIKQKEMMRIGFVLNIACIGALTLFAWLFW | failed
MDLDLRKLRYFVAVADRLHFGRAADALHIAQPALSRQIRALEQDLGASLFTRDSHGVTLTDAGRQLLDDAGPLLASAHAVRRRVSVAERGGRRLVVGFRAGIPVIPATRVFEAQHPDVVVDVQRMEWDDQASMLLDGRVDVAYVRLPLAETGLRLAPLYTEPLMVALPAGHRLAGKDEVTEADLAGEPLIWHADASRQPTRRPHPDSGLRVRGVEEKLEHVAAGRGISFVGRSEAVFFSRPDISYVPVPDLAPDQVCVAMAASRTSPLADSFFAAAQTTAEITAECGNYEMWRLASDAASKRD | failed

Reference: a protein production outcome set (Wang et al. 2014)
